In paper PMC9482650, “Quantitative fragmentomics allow affinity mapping of interactomes” (Nature Communications, 2022):

Columns and labels:
Test in all cases: holdup assay
Parameters in all cases: key: below the threshold = too weak to quantify, mostly under pKd 3.1 to 4
Conditions in all cases: plain residues with an end cap or a label only (N-terminal biotin on a linker: ttds)
AHNAK1, Q09666 = biological target: AHNAK1, Q09666
APBA1_1, Q02410 = biological target: T1, APBA1_1, Q02410
T1 sequence (Q02410 651-752, limits assumed, looked up): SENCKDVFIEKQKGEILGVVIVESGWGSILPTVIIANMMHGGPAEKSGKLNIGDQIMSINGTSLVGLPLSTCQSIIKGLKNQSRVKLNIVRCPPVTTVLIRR

APBA2_1, Q99767 = biological target: T2, APBA2_1, Q99767
T2 sequence (Q99767 563-664, limits assumed, looked up): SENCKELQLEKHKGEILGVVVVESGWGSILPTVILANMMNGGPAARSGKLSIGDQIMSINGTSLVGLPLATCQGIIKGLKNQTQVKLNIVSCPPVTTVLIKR

APBA2_2, Q99767 = biological target: T3, APBA2_2, Q99767
T3 sequence (Q99767 654-744, limits assumed, looked up): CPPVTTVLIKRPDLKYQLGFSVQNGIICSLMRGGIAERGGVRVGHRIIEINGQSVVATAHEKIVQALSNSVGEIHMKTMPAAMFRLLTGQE

DFNB31_1, Q9P202 = biological target: T4, DFNB31_1, Q9P202
T4 sequence (Q9P202 135-233, limits assumed, looked up): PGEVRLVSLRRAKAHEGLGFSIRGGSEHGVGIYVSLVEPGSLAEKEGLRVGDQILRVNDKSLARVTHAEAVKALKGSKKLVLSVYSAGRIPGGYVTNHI

DFNB31_2, Q9P202 = biological target: T5, DFNB31_2, Q9P202
T5 sequence (Q9P202 274-371, limits assumed, looked up): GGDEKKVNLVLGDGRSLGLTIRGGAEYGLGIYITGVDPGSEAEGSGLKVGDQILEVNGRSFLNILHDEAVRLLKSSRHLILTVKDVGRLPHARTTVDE

DLG1_3, Q12959 = biological target: DLG1_3, Q12959
DLG2_3, Q15700 = biological target: DLG2_3, Q15700
DVL3, Q92997 = biological target: T6, DVL3, Q92997
T6 sequence (Q92997 244-331, limits assumed, looked up): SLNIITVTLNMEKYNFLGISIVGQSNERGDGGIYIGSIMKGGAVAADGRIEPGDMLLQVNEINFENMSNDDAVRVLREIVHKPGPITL

FRMPD3, Q5JV73 = biological target: FRMPD3, Q5JV73
GORASP1, Q9BQQ3 = biological target: GORASP1, Q9BQQ3
GORASP2, Q9H8Y8 = biological target: GORASP2, Q9H8Y8
GRID2IP_2, A4D2P6 = biological target: GRID2IP_2, A4D2P6
GRIP2_6, Q9C0E4 = biological target: GRIP2_6, Q9C0E4
GRIP2_7, Q9C0E4 = biological target: GRIP2_7, Q9C0E4
HTRA3, P83110 = biological target: T7, HTRA3, P83110
T7 sequence (P83110 354-453, limits assumed, looked up): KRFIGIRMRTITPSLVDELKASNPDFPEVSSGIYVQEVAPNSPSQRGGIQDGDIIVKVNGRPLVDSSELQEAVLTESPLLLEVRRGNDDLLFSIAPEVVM

IL16_1, Q14005 = biological target: IL16_1, Q14005
LIMK2, P53671 = biological target: LIMK2, P53671
LNX1_1, Q8TBB1 = biological target: LNX1_1, Q8TBB1
MAGI2_3, Q86UL8 = biological target: MAGI2_3, Q86UL8
MAGI2_5, Q86UL8 = biological target: MAGI2_5, Q86UL8
MAST1, Q9Y2H9 = biological target: MAST1, Q9Y2H9
MPDZ_5, O75970 = biological target: T8, MPDZ_5, O75970
T8 sequence (O75970 695-796, limits assumed, looked up): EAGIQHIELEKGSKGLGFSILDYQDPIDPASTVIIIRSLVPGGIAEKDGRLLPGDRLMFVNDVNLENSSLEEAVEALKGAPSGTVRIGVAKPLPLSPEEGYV

NHERF2_2, Q15599 = biological target: NHERF2_2, Q15599
NOS1, P29475 = biological target: NOS1, P29475
RHPN1, Q8TCX5 = biological target: T9, RHPN1, Q8TCX5
T9 sequence (Q8TCX5 508-602, limits assumed, looked up): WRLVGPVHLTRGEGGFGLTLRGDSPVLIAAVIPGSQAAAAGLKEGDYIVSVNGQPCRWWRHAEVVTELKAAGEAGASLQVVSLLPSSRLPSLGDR

SIPA1L2, Q9P2F8 = biological target: T10, SIPA1L2, Q9P2F8
T10 sequence (Q9P2F8 945-1036, limits assumed, looked up): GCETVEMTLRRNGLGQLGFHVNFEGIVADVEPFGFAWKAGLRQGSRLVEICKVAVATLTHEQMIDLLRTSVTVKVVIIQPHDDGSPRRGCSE

Chain of AHNAK1, Q09666 (Q09666 4-100): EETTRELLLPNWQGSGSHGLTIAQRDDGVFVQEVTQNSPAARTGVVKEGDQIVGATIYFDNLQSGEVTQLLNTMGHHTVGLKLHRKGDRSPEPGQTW
Chain of MAST1, Q9Y2H9 (Q9Y2H9 962-1065): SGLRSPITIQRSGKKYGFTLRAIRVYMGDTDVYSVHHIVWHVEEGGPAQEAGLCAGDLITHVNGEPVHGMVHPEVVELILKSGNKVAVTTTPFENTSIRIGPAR
Chain of GRIP2_7, Q9C0E4 (Q9C0E4 934-1023): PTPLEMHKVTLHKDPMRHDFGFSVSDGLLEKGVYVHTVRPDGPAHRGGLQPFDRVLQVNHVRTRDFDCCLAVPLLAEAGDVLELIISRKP
Chain of GRIP2_6, Q9C0E4 (Q9C0E4 648-740): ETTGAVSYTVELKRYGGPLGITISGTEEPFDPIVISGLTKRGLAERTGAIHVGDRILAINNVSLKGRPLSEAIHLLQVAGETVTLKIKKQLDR
Chain of FRMPD3, Q5JV73 (Q5JV73 12-100): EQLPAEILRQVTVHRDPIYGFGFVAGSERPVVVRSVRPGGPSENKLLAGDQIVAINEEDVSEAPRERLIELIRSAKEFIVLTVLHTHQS
Chain of MAGI2_3, Q86UL8 (Q86UL8 600-682): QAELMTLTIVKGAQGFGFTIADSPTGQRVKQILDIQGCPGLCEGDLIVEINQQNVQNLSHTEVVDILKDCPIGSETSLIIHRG
Chain of LNX1_1, Q8TBB1 (Q8TBB1 261-371): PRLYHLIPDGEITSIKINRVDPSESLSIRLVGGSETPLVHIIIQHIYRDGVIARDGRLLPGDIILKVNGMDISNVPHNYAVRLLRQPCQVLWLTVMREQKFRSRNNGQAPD
Chain of NHERF2_2, Q15599 (Q15599 142-238): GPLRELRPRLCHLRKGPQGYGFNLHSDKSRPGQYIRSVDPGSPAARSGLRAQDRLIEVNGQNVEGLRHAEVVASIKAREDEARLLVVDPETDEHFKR
Chain of LIMK2, P53671 (P53671 143-248): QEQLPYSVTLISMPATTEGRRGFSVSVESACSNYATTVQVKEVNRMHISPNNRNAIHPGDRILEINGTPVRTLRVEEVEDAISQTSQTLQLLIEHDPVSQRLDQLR
Chain of NOS1, P29475 (P29475 9-101): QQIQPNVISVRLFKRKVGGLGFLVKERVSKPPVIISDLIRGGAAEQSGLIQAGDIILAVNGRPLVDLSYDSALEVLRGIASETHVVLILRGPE
Chain of GRID2IP_2, A4D2P6 (A4D2P6 272-370): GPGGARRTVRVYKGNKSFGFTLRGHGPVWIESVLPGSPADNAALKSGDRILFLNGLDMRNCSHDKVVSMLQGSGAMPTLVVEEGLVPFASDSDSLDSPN
Chain of MAGI2_5, Q86UL8 (Q86UL8 915-1017): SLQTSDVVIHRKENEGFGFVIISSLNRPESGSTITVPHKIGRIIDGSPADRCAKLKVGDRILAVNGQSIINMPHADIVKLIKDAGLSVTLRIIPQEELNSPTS
Chain of GORASP1, Q9BQQ3 (Q9BQQ3 1-208): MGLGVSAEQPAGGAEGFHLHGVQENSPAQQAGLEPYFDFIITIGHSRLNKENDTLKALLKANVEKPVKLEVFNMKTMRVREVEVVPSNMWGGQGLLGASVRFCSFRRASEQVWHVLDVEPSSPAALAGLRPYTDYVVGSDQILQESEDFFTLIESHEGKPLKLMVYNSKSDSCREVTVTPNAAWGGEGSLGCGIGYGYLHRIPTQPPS
Chain of DLG1_3, Q12959 (Q12959 457-571): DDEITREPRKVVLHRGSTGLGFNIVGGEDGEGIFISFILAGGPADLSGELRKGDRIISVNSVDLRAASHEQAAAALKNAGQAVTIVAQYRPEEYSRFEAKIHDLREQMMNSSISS
Chain of IL16_1, Q14005 (Q14005 210-306): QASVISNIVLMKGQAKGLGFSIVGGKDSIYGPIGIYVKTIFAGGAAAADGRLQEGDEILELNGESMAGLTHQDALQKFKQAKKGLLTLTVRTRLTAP

pKd (AHNAK1, Q09666): below the threshold | pKd (APBA1_1, Q02410): below the threshold | pKd (APBA2_1, Q99767): below the threshold | pKd (APBA2_2, Q99767): below the threshold | pKd (DFNB31_1, Q9P202): 4.63 | pKd (DFNB31_2, Q9P202): below the threshold | pKd (DLG1_3, Q12959): 4.38 | pKd (DLG2_3, Q15700): 3.98 | pKd (DVL3, Q92997): below the threshold | pKd (FRMPD3, Q5JV73): 3.6 | pKd (GORASP1, Q9BQQ3): below the threshold | pKd (GORASP2, Q9H8Y8): 3.82 | pKd (GRID2IP_2, A4D2P6): 4.36 | pKd (GRIP2_6, Q9C0E4): below the threshold | pKd (GRIP2_7, Q9C0E4): below the threshold | pKd (HTRA3, P83110): below the threshold | pKd (IL16_1, Q14005): 3.5 | pKd (LIMK2, P53671): below the threshold | pKd (LNX1_1, Q8TBB1): 3.59 | pKd (MAGI2_3, Q86UL8): below the threshold | pKd (MAGI2_5, Q86UL8): 4.69 | pKd (MAST1, Q9Y2H9): 5.28 | pKd (MPDZ_5, O75970): below the threshold | pKd (NHERF2_2, Q15599): 5.07 | pKd (NOS1, P29475): 4.04 | pKd (RHPN1, Q8TCX5): 4.87 | pKd (SIPA1L2, Q9P2F8): below the threshold
Binder: STLTIFETAL [ABCC4, O15439]
